Results published in the supplement of paper PMC7125110.
± gives the standard error. Fewer inactive variants are shown than the library holds.

B1: glmS ribozyme (parent)
chain: AUAAAAGCGCCAGAACUACAGAAAUGUAGUUGACGAGGAGGAGGUUUAUCGAAUUUUCGGCGGAUGCCUCCAAA

Tests used:
Settings in all cases: with glucosamine-6-phosphate
glucosamine-6-phosphate [1] = variants of: B1; assay: self-cleavage kobs at 40 uM GlcN6P; higher = faster cleavage; RNA array
In short: (§1)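 A hybridised Cy3 probe tracked barcoded ribozyme variants, transcribed in situ by E. coli RNA polymerase on sequenced MiSeq chips, at 37 °C. The variants received 40 μM to 10 mM glucosamine-6-phosphate in HEPES/KCl/Mg(OAc)2 buffer. kobs came from decay fits and kcat and KM from weighted Michaelis–Menten fits.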

glucosamine-6-phosphate [2] = variants of: B1; assay: self-cleavage kobs at 2500 uM GlcN6P; higher = faster cleavage; RNA array
In short: as §1

glucosamine-6-phosphate [3] = variants of: B1; assay: self-cleavage kobs at 10000 uM GlcN6P; higher = faster cleavage; RNA array
In short: as §1

glucosamine-6-phosphate [4] = variants of: B1; assay: self-cleavage kobs at 160 uM GlcN6P; higher = faster cleavage; RNA array
In short: as §1

glucosamine-6-phosphate [5] = variants of: B1; assay: self-cleavage kobs at 640 uM GlcN6P; higher = faster cleavage; RNA array
In short: as §1

| Variant | self-cleavage kobs at 40 uM GlcN6P (glucosamine-6-phosphate [1]) [s⁻¹] | self-cleavage kobs at 2500 uM GlcN6P (glucosamine-6-phosphate [2]) [s⁻¹] | self-cleavage kobs at 10000 uM GlcN6P (glucosamine-6-phosphate [3]) [s⁻¹] | self-cleavage kobs at 160 uM GlcN6P (glucosamine-6-phosphate [4]) [s⁻¹] | self-cleavage kobs at 640 uM GlcN6P (glucosamine-6-phosphate [5]) [s⁻¹] |
| --- | --- | --- | --- | --- | --- |
| G13A U31A G59C C70A | < 1e-05 | – | – | – | – |
| A12C U30G U54G | 3.64e-05 ± 1.3e-05 | 0.000897 ± 0.00025 | 0.00183 ± 0.00039 | – | – |
| A14C G32A A52U | < 1e-05 | 5.9e-05 ± 2.1e-05 | 9.78e-05 ± 1.9e-05 | – | – |
| A14C A15C G62U G63C | < 1e-05 | – | – | – | – |
| G13C A39C U47G | < 1e-05 | < 1e-05 | – | < 1e-05 | – |
| G13C A64C | < 1e-05 | < 1e-05 | < 1e-05 | < 1e-05 | – |
| A14C G35U G43C | < 1e-05 | – | – | – | – |
| A12C G32A A48G | < 1e-05 | – | – | – | – |
| A12C U30A G38C C61U | < 1e-05 | < 1e-05 | – | – | – |
| A14G A15C U54G | 0.000827 ± 0.00016 | – | 0.048 ± 0.017 | – | – |
| G13C A52C G62U | < 1e-05 | – | < 1e-05 | – | – |
| A12C C34G G37U | < 1e-05 | – | < 1e-05 | – | – |
| G13A G43U | < 1e-05 | – | – | < 1e-05 | < 1e-05 |
| A12U G63A | < 1e-05 | < 1e-05 | < 1e-05 | < 1e-05 | < 1e-05 |
| A14G U56C G59U | < 1e-05 | – | 2.7e-05 ± 1.3e-05 | – | – |
| A12U A33C A42C | < 1e-05 | – | – | – | – |
| A12U A39G | 0.00377 ± 0.00072 | 0.0119 ± 0.0036 | 0.105 ± 0.045 | 0.00677 ± 0.0016 | 0.0284 ± 0.013 |
| G13A G44U C50G C71U | < 1e-05 | – | – | – | < 1e-05 |
| A12U G37A C61G C70A | < 1e-05 | – | < 1e-05 | – | – |
| G13A G62U | < 1e-05 | < 1e-05 | < 1e-05 | < 1e-05 | < 1e-05 |
| A12G C50G C58U | 0.000139 ± 4.9e-05 | – | 3.85e-05 ± 1.8e-05 | – | – |
| A12U A33G G63A | < 1e-05 | – | – | – | – |
| G13A A33C C50A C71U | < 1e-05 | < 1e-05 | – | – | – |
| A12U G38A G41A A64G | < 1e-05 | – | < 1e-05 | – | – |

| Variant | self-cleavage kobs at 40 uM GlcN6P (glucosamine-6-phosphate [1]) [s⁻¹] | self-cleavage kobs at 2500 uM GlcN6P (glucosamine-6-phosphate [2]) [s⁻¹] | self-cleavage kobs at 10000 uM GlcN6P (glucosamine-6-phosphate [3]) [s⁻¹] | self-cleavage kobs at 160 uM GlcN6P (glucosamine-6-phosphate [4]) [s⁻¹] | self-cleavage kobs at 640 uM GlcN6P (glucosamine-6-phosphate [5]) [s⁻¹] |
| --- | --- | --- | --- | --- | --- |
| A12U C34G | < 1e-05 | < 1e-05 | < 1e-05 | < 1e-05 | < 1e-05 |
| A12C G38C U56C | < 1e-05 | – | < 1e-05 | – | – |
| A12G G60C | < 1e-05 | < 1e-05 | < 1e-05 | < 1e-05 | < 1e-05 |
| A12G G60A | < 1e-05 | < 1e-05 | < 1e-05 | < 1e-05 | – |
| A14G C16U G37A C67G C70G | < 1e-05 | < 1e-05 | – | – | – |
| A14C A52C | < 1e-05 | – | < 1e-05 | < 1e-05 | < 1e-05 |
| G13C G35U | < 1e-05 | – | < 1e-05 | < 1e-05 | – |
| A12C G38A G60A | < 1e-05 | – | < 1e-05 | < 1e-05 | – |
| G13C A33C G41U | < 1e-05 | < 1e-05 | < 1e-05 | < 1e-05 | < 1e-05 |
| A14G U30G | 0.001 ± 0.00014 | 0.0179 ± 0.0054 | 0.0807 ± 0.027 | 0.00212 ± 0.00046 | 0.00706 ± 0.0011 |
| A14U C50U G59C C70U | < 1e-05 | – | – | – | – |
| A12U A15C U55A | 0.000587 ± 0.00012 | – | 0.012 ± 0.0027 | – | – |
| A14C U54A | 0.00014 ± 2.7e-05 | 0.0023 ± 0.0005 | 0.00985 ± 0.0024 | – | 0.00123 ± 0.00021 |
| G13C G60C | < 1e-05 | – | < 1e-05 | < 1e-05 | – |
| A12C G38A G51A G59U C68U | < 1e-05 | – | < 1e-05 | – | – |
| A12U U30G U47G A48U U49C U69C C70G | < 1e-05 | – | < 1e-05 | – | – |
| A14U C50G C58U | 0.000443 ± 0.00014 | – | 3.69e-05 ± 1.8e-05 | – | – |
| A12U C16A G51C | < 1e-05 | – | – | – | – |
| G13U A36U A48G U55C C68G C70U | 0.0002 ± 6.4e-05 | – | 0.000527 ± 0.00022 | – | – |
| A12C C58A G63A | < 1e-05 | – | – | – | – |
| G13A A15U G37C | < 1e-05 | – | – | – | – |
| A12G A36U C50G C70U C71U | 0.000102 ± 4.6e-05 | – | 5.91e-05 ± 1.9e-05 | – | – |
| G13C G35A A39G A53C U56C G63C | < 1e-05 | < 1e-05 | < 1e-05 | – | < 1e-05 |
| A12U U45A C58G C71G | < 1e-05 | 4.36e-05 ± 1.4e-05 | 3.15e-05 ± 1.5e-05 | – | – |
